Test results taken from the RNAGym collection of RNA variant scans (doi:10.1093/molbev/msab373).

B1: Azoarcus group I ribozyme (parent)
chain: GUGCCUUGCGCCGGGAAACCACGCAAGGGAUGGUGUCAAAUUCGGCGAAACCUAAGCGCCCGCCCGGGCGUAUGGCAACGCCGAGCCAAGCUUCGGCGCCUGCGCCGAUGAAGGUGUAGAGACUAGACGGCACCCACCUAAGGCAAACGCUAUGGUGAAGGCAUAGUCCAGGGAGUGGCGAAAGUCACACAAACCGG

Variants of: B1
Test: reverse-splicing fitness (ratio to wild type); higher = more active; in vitro selection; Mg2+ level not given
Outline: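 An in vitro group I ribozyme library with randomized positions was T7-transcribed and gel-purified. In triplicate, 10 pmol RNA in EPPS pH 7.5 was reacted with 50 pmoles of a 30-nt RNA substrate for 1 h at 37 °C across several added MgCl2 levels (1–48 mM), then stopped with EDTA. Products were reverse transcribed from a substrate-complementary primer, PCR-amplified and sequenced (HiSeq 4000). Fitness is a variant's read proportion after selection over that before, normalised to wild type.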

In order of falling reverse-splicing fitness:
1. A111U A145G C150U  0.915
2. A120C  0.9
3. A120C A145C  0.783
4. A120C A145G C150U  0.781
5. A120C A145G  0.772
6. A111U A145G U176C  0.721
7. A111U A145G U176A  0.701
8. A120C A145C U176A  0.693
9. A111U A145G C150U U176C  0.692
10. A111U A145C C150U  0.661
11. A111U A145U C150U U176C  0.641
12. A111U A145U C150U U176A  0.632
13. A111U A145G C150U U176A  0.591
14. A120C A145C U176C  0.574
15. A111U A145G C150A  0.516
16. A120C A145C C169U  0.431
17. A111U A145G C150G  0.359
18. A120C A145G C150A  0.32
19. A111U A145G U176G  0.267
20. A111U A145U C150U U176G  0.266
21. A120C A145C U176G  0.266
22. A120C A145G C150G  0.234
23. A111U A145G C150U U176G  0.22
24. A120C A145C C150G U176C  0.174
25. A111U A145G C150G U176C  0.171
26. A120C A145C C150G U176A  0.155
27. A120C A145G C150G U176C  0.146
28. A120C A145G C150A C169U  0.134
29. A111U C150G U176C  0.124
30. A120C A145C C150A U176A  0.112
31. A111U A145G C169U  0.111
32. A111U A145U C169U  0.109
33. A120C A145G C150G C169U  0.108
34. A111U C169U  0.103
35. A120C A145C C150A U176C  0.102
36. A111U A145G C150G U176A  0.0997
37. A111U A145G C150U C169U  0.0923
38. A120C A145G C150G U176A  0.0905
39. A120C A145G C150A C169U U176C  0.0824
40. A111U C150G U176A  0.0805
41. A111U A145G C169G  0.0699
42. A120C A145G C150A C169U U176A  0.0678
43. A111U A145U C169G  0.0652
44. A111U C169G  0.0649
45. A111U C150U C169U  0.0631
46. A111U A145G C150U C169G  0.0498
47. A111U C150U C169G  0.0372
48. A111U A145U C169A  0.0323
49. A120C A145C C169A  0.0312
50. A111U A145G C169A  0.0306
51. A111U C169A  0.0292
52. A111U A145C C169G U176A  0.0286
53. A111U A145C C169U U176C  0.0265
54. A111U C150U C169U U176A  0.0262
55. A120C A145C C150G U176G  0.0256
56. A111U A145C C169U U176A  0.0252
57. A111U A145G C150U C169A  0.025
58. A120C A145C C169G  0.0239
59. A111U C150U C169U U176C  0.0237
60. A111U C150A C169G U176C  0.0236
61. A120C A145G C150A C169G U176C  0.0234
62. A111U A145C C169G U176C  0.0232
63. A111U A145G C150G U176G  0.0223
64. A120C A145G C150A C169A U176C  0.0217
65. A111U C150U C169G U176C  0.0215
66. A111U C169A U176C  0.0214
67. A111U C150A C169U U176A  0.0201
68. A111U C150U C169A  0.02
69. A111U A145U C150U C169G U176C  0.0192
70. A111U A145G C150A C169U U176C  0.0191
71. A120C A145G C150G U176G  0.019
72. A111U C150A C169U U176C  0.0188
73. A111U A145G C150G C169U  0.0181
74. A111U A145U C150A C169U  0.018
75. A111U C150U C169G U176A  0.0177
76. A111U A145C C150G C169U  0.0175
77. A111U A145G C150A C169U U176A  0.0173
78. A111U A145C C150U C169U U176A  0.0173
79. A111U C169A U176A  0.0172
80. A120C A145G C150A C169G U176A  0.017
81. A120C A145G C150A C169A U176A  0.0168
82. A111U C150A C169U  0.0167
83. A120C A145C C150A C169G U176A  0.0166
84. A111U C150G U176G  0.0165
85. A111U C150A C169G U176A  0.0165
86. A120C A145C C169G U176A  0.0163
87. A111U A145U C150U C169G U176A  0.016
88. A120C A145C C150U C169G U176A  0.0156
89. A120C A145G C150A C169A  0.0153
90. A111U A145C C150U C169U U176C  0.0152
91. A111U C150G C169U U176C  0.0145
92. A111U A145U C150U C169A U176A  0.0144
93. A111U C150G C169U  0.0141
94. A111U A145G C150G C169U U176C  0.0136
95. A120C A145G C150G C169G U176C  0.0135
96. A120C A145G C150G C169A U176C  0.0132
97. A111U A145U C150A C169A U176A  0.0131
98. A120C A145G C150G C169A U176A  0.0131
99. A111U C150A C169G  0.0124
100. A111U A145G C150G C169A U176C  0.0121
101. A120C A145G C150G C169A  0.0119
102. A111U A145G C150G C169A U176A  0.0118
103. A111U A145C C150U C169A U176A  0.0117
104. A111U A145G C150G C169G U176C  0.0116
105. A111U A145U C169A U176C  0.0115
106. A111U A145U C169A U176A  0.0113
107. A111U A145G C150G C169U U176A  0.0111
108. A111U C150A C169A  0.0111
109. A111U A145G C150G C169G  0.011
110. A111U A145U C150A C169G  0.0109
111. A111U A145C C150G C169G  0.0108
112. A120C A145G C150A C169G  0.0107
113. A111U A145C C169A U176A  0.0105
114. A111U A145U C150U C169A U176C  0.0104
115. A111U A145G C150G C169A  0.0104
116. A120C A145C C169G U176C  0.0103
117. A111U A145U C150G C169A U176A  0.0103
118. A111U A145U C150G C169A U176C  0.0101
119. A111U A145U C150A C169A  0.01
120. A111U C150G C169G  0.00998
121. A111U A145G C150G C169G U176A  0.00998
122. A120C A145G C150G C169G U176A  0.00996
123. A111U A145U C150A C169A U176C  0.00995
124. A120C A145G C150G C169G  0.00987
125. A111U C150G C169A  0.00956
126. A120C A145C C169A U176A  0.00918
127. A111U A145C C169A U176C  0.00885
128. A120C A145C C169A U176C  0.00838
129. A120C A145C C150U C169G U176C  0.00823
130. A120C A145G C150G C169A U176G  0.00789
131. A111U C150G C169U U176A  0.00776
132. A111U A145C C150U C169A U176C  0.00769
133. A120C A145C C150A C169G U176C  0.00769
134. A111U A145G C150G C169U U176G  0.0076
135. A111U C150A C169U U176G  0.00721
136. A111U C150U C169G U176G  0.00719
137. A111U A145U C150G C169G U176A  0.00711
138. A111U A145G C150G C169A U176G  0.00707
139. A111U C150U C169U U176G  0.00705
140. A111U A145C C150U C169A U176G  0.00703
141. A120C A145G C150A C169U U176G  0.00697
142. A111U A145U C150U C169A U176G  0.00694
143. A111U A145G C150A C169U U176G  0.00686
144. A111U C150G C169G U176A  0.00681
145. A111U A145U C150U C169G U176G  0.00643
146. A111U C150G C169U U176G  0.00634
147. A111U A145U C169A U176G  0.00631
148. A111U A145C C169U U176G  0.0061
149. A111U A145C C169A U176G  0.00602
150. A111U A145G C150G C169G U176G  0.00597
151. A111U C169A U176G  0.00592
152. A111U A145U C150G C169A U176G  0.00591
153. A111U A145C C169G U176G  0.00585
154. A111U A145U C150A C169A U176G  0.00582
155. A111U C150A C169G U176G  0.00571
156. A111U A145C C150U C169U U176G  0.00571
157. A111U A145U C150G C169G U176C  0.00535
158. A111U A145U C150G C169G U176G  0.00534
159. A120C A145G C150G C169G U176G  0.00533
160. A111U C150G C169G U176G  0.00515
161. A120C A145C C150A C169G U176G  0.00492
162. A120C A145G C150A C169A U176G  0.00483
163. A111U C150G C169G U176C  0.00465
164. A120C A145G C150A C169G U176G  0.00453
165. A120C A145C C150U C169G U176G  0.00381
166. A120C A145C C169G U176G  0.00338
167. A120C A145C C169A U176G  0.00331
